In paper PMC9638019, “The archetypal gene transfer agent RcGTA is regulated via direct interaction with the enigmatic RNA polymerase omega subunit”:

Key:
[1] = target: Maltose Binding Protein-GafA fusion protein (R. capsulatus); test: SEC; analytical gel filtration, Superdex 200 increase 10/200 GL, MBP binding buffer (200 mM NaCl, 20 mM Tris, 1 mM EDTA; pH 7.4); molecular weight estimated from a standard curve
[2] = target: MBP-GafA-Cx^87–382 (R. capsulatus); test: as above
[3] = target: MBP-GafA-C^221–382 (R. capsulatus); test: as above
GafA-Nc1-86 [4] = target: T1, GafA-Nc1-86 (UniProt D5AUH1 1-86); test: EMSA; non-specific: shift lost with 500-fold non-specific competitor; 25 mM HEPES pH 8.0, 50 mM K-glutamate, 50 mM MgSO4, 1 mM DTT, 0.1 mM EDTA, 0.05% Triton X-100, 4% glycerol, 1 ug poly dI:dC per 10 ul, 80 nM Cy5-dsDNA, 30 min room temperature; 7% acrylamide, 1x TBE; details: protein: recombinant; tags: none (MBP removed with 3C protease); label: 5'-Cy5 on one strand; blunt
T1 sequence: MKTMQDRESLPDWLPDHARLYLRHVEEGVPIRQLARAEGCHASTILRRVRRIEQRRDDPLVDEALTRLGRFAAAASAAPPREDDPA

GafA-Nc1-86 [5] = target: T1, GafA-Nc1-86; test: EMSA; non-specific; 25 mM HEPES pH 8.0, 50 mM K-glutamate, 50 mM MgSO4, 1 mM DTT, 0.1 mM EDTA, 0.05% Triton X-100, 4% glycerol, 1 ug poly dI:dC per 10 ul, 80 nM Cy5-dsDNA, 30 min room temperature; 7% acrylamide, 1x TBE; details: protein: recombinant; tags: none (MBP removed with 3C protease); label: 5'-Cy5 on one strand; blunt
GafA-Nc1-86 [6] = target: T1, GafA-Nc1-86; test: EMSA; specific: shift remains with 500-fold non-specific competitor; 25 mM HEPES pH 8.0, 50 mM K-glutamate, 50 mM MgSO4, 1 mM DTT, 0.1 mM EDTA, 0.05% Triton X-100, 4% glycerol, 1 ug poly dI:dC per 10 ul, 80 nM Cy5-dsDNA, 30 min room temperature; 7% acrylamide, 1x TBE; details: protein: recombinant; tags: none (MBP removed with 3C protease); label: 5'-Cy5 on one strand; blunt
MBP-GafA-C221-382 = target: T2, MBP-GafA-C221-382 (UniProt D5AUH1 221-382); test: EMSA; poly dI:dC; 25 mM HEPES pH 8.0, 50 mM K-glutamate, 50 mM MgSO4, 1 mM DTT, 0.1 mM EDTA, 0.05% Triton X-100, 4% glycerol, 1 ug poly dI:dC per 10 ul, 80 nM Cy5-dsDNA, 30 min room temperature; 7% acrylamide, 1x TBE; details: protein: recombinant; tags: N-terminal MBP; chain copies: 2; label: 5'-Cy5 on one strand; blunt
T2 sequence: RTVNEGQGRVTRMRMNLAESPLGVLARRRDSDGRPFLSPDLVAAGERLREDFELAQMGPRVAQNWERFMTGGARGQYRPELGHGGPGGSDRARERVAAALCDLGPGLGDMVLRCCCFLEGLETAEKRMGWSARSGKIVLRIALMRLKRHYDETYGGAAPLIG

Molecule: Maltose Binding Protein-GafA fusion protein (natural protein)
- stoichiometry N [1]: 2

Molecule: MBP-GafA-Cx^87–382 (domain or fragment)
- stoichiometry N [2]: 2

Molecule: MBP-GafA-C^221–382 (domain or fragment)
- stoichiometry N [3]: 2

B1: pGTA4 (dsDNA)
DNA 1: TTCATTTCGCTCGTGCGGACAGGCATGAGAGGCGGGTCACGCAAGACATG
DNA 2: CATGTCTTGCGTGACCCGCCTCTCATGCCTGTCCGCACGAGCGAAATGAA
- binding result (GafA-Nc1-86 [4]): binds

B2: pGafA1 (dsDNA)
DNA 1: TCGAGATCGCCCCATTTCTTAACCAAGGGGTAACCAAAGCAACCCACGGT
DNA 2: ACCGTGGGTTGCTTTGGTTACCCCTTGGTTAAGAAATGGGGCGATCTCGA
- binding result (GafA-Nc1-86 [5]): binds

B3: pGTA1 (dsDNA)
DNA 1: TCCGGGGTTTTTTCTTTTCAGCGGGTGCAACCCTGAATATAGCACTTGAC
DNA 2: GTCAAGTGCTATATTCAGGGTTGCACCCGCTGAAAAGAAAAAACCCCGGA
- binding result (GafA-Nc1-86 [6]): binds

B4: pGafA3 (dsDNA)
DNA 1: CGCTCAACCGAACGCTGCGTTTGGAAATCTTTAGAGTTTATAAAGAATTT
DNA 2: AAATTCTTTATAAACTCTAAAGATTTCCAAACGCAGCGTTCGGTTGAGCG
- binding result (MBP-GafA-C221-382): binds

B5: pGTA2 (dsDNA)
DNA 1: TTTGCGAACGCTTCAAGGTAGAGATAAGGCATGCTAGGAGAGGTGGGCAA
DNA 2: TTGCCCACCTCTCCTAGCATGCCTTATCTCTACCTTGAAGCGTTCGCAAA
- binding result (MBP-GafA-C221-382): binds
- binding result (GafA-Nc1-86 [4]): binds

B6: pGafA2 (dsDNA)
DNA 1: TGCAGATGCCGTTTGCGCTATCTGACTGCCAGCCTGTCGATGGGAGACCGGAGATGAAGA
DNA 2: TCTTCATCTCCGGTCTCCCATCGACAGGCTGGCAGTCAGATAGCGCAAACGGCATCTGCA
- binding result (GafA-Nc1-86 [5]): binds

B7: pGTA3 (dsDNA)
DNA 1: GCGCCGCGGGTGACCGTGTGCGCTTTTTTCATTTCGCTCGTGCGGACAGG
DNA 2: CCTGTCCGCACGAGCGAAATGAAAAAAGCGCACACGGTCACCCGCGGCGC
- binding result (GafA-Nc1-86 [6]): binds
